Test results from the supplement of paper PMC9112550, “Optimization of the antimicrobial peptide Bac7 by deep mutational scanning” (BMC Biology, 2022).

Tested on: Escherichia coli TOP10
Test: shrunken log2 fold change of peptide-encoding DNA abundance (4.5 h post-induction vs induction); higher = less antimicrobial activity (less host growth inhibition)
Conditions: time post-induction: 4.5 h; library: site-saturation at positions 5, 18, 19, 20
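Also: peptides expressed intracellularly from a pBAD plasmid library in pooled LB shake-flask culture, induced with 0.3% L-arabinose, DNA abundance read by NGS, three biological replicates, DESeq2 with apeglm shrinkage.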

## RRIRKRPPRLPRPRPRPTSTPRP
  shrunken log2 fold change: 0.489

## RRIRGRPPRLPRPRPRPNQPPRP
  shrunken log2 fold change: 0.295

## RRIRQRPPRLPRPRPRPNMAPRP
  shrunken log2 fold change: -0.173

## RRIRIRPPRLPRPRPRPCKRPRP
  shrunken log2 fold change: 0.0279

## RRIRSRPPRLPRPRPRPCACPRP
  shrunken log2 fold change: -0.0721

## RRIRIRPPRLPRPRPRPGMNPRP
  shrunken log2 fold change: -0.0956

## RRIRQRPPRLPRPRPRPSFRPRP
  shrunken log2 fold change: -0.578

## RRIRTRPPRLPRPRPRPRWYPRP
  shrunken log2 fold change: -0.288

## RRIRERPPRLPRPRPRPIPVPRP
  shrunken log2 fold change: -0.217

## RRIRLRPPRLPRPRPRPHYKPRP
  shrunken log2 fold change: -0.525

## RRIRKRPPRLPRPRPRPVCDPRP
  shrunken log2 fold change: 0.683

## RRIRVRPPRLPRPRPRPDLVPRP
  shrunken log2 fold change: 0.211

## RRIRRRPPRLPRPRPRPTFAPRP
  shrunken log2 fold change: 0.765

## RRIRPRPPRLPRPRPRPRWCPRP
  shrunken log2 fold change: 0.171

## RRIRNRPPRLPRPRPRPSGRPRP
  shrunken log2 fold change: -0.0659

## RRIRKRPPRLPRPRPRPACVPRP
  shrunken log2 fold change: 0.735

## RRIRPRPPRLPRPRPRPMMKPRP
  shrunken log2 fold change: -0.173

## RRIRARPPRLPRPRPRPRIWPRP
  shrunken log2 fold change: 0.164

## RRIRSRPPRLPRPRPRPIPRPRP
  shrunken log2 fold change: 0.202

## RRIRGRPPRLPRPRPRPTMVPRP
  shrunken log2 fold change: 0.786

## RRIRHRPPRLPRPRPRPFMVPRP
  shrunken log2 fold change: -0.43

## RRIRFRPPRLPRPRPRPANSPRP
  shrunken log2 fold change: -0.448

## RRIRDRPPRLPRPRPRPKKPPRP
  shrunken log2 fold change: -0.0462

## RRIRARPPRLPRPRPRPAGYPRP
  shrunken log2 fold change: 0.399

## RRIRTRPPRLPRPRPRPRLKPRP
  shrunken log2 fold change: 0.0991

## RRIRVRPPRLPRPRPRPDMGPRP
  shrunken log2 fold change: -0.0133

## RRIRHRPPRLPRPRPRPPMKPRP
  shrunken log2 fold change: -0.278

## RRIRYRPPRLPRPRPRPPPAPRP
  shrunken log2 fold change: 0.878

## RRIRTRPPRLPRPRPRPAKVPRP
  shrunken log2 fold change: -0.29

## RRIRRRPPRLPRPRPRPVVPPRP
  shrunken log2 fold change: 0.47

## RRIRERPPRLPRPRPRPWQHPRP
  shrunken log2 fold change: -0.00568

## RRIRVRPPRLPRPRPRPQIGPRP
  shrunken log2 fold change: -0.273

## RRIRKRPPRLPRPRPRPMCPPRP
  shrunken log2 fold change: 0.199

## RRIRCRPPRLPRPRPRPSWFPRP
  shrunken log2 fold change: -0.147

## RRIRFRPPRLPRPRPRPRKKPRP
  shrunken log2 fold change: 0.14

## RRIRMRPPRLPRPRPRPSLWPRP
  shrunken log2 fold change: 1.72

## RRIRIRPPRLPRPRPRPPGMPRP
  shrunken log2 fold change: 0.238

## RRIRMRPPRLPRPRPRPHLHPRP
  shrunken log2 fold change: -0.301

## RRIRGRPPRLPRPRPRPESYPRP
  shrunken log2 fold change: 0.0402

## RRIRTRPPRLPRPRPRPNRFPRP
  shrunken log2 fold change: -0.00879

## RRIRIRPPRLPRPRPRPVGCPRP
  shrunken log2 fold change: 0.166

## RRIRFRPPRLPRPRPRPNGGPRP
  shrunken log2 fold change: 0.000932

## RRIRGRPPRLPRPRPRPTFYPRP
  shrunken log2 fold change: 0.264

## RRIRARPPRLPRPRPRPFGTPRP
  shrunken log2 fold change: -0.194

## RRIRYRPPRLPRPRPRPHCLPRP
  shrunken log2 fold change: -0.0757

## RRIRNRPPRLPRPRPRPQMVPRP
  shrunken log2 fold change: -0.00674

## RRIRNRPPRLPRPRPRPEVTPRP
  shrunken log2 fold change: -0.0105

## RRIRSRPPRLPRPRPRPQCGPRP
  shrunken log2 fold change: -0.129

## RRIRYRPPRLPRPRPRPTYWPRP
  shrunken log2 fold change: -0.318

## RRIRHRPPRLPRPRPRPFLCPRP
  shrunken log2 fold change: -0.172

## RRIRNRPPRLPRPRPRPGYWPRP
  shrunken log2 fold change: 0.168

## RRIRIRPPRLPRPRPRPYCIPRP
  shrunken log2 fold change: -0.224

## RRIRYRPPRLPRPRPRPPYMPRP
  shrunken log2 fold change: -0.43

## RRIRLRPPRLPRPRPRPFQVPRP
  shrunken log2 fold change: -0.0146

## RRIRPRPPRLPRPRPRPKERPRP
  shrunken log2 fold change: 0.128

## RRIRDRPPRLPRPRPRPQDKPRP
  shrunken log2 fold change: -0.592

## RRIRWRPPRLPRPRPRPDTCPRP
  shrunken log2 fold change: -0.0059

## RRIRDRPPRLPRPRPRPPAIPRP
  shrunken log2 fold change: 0.00372

## RRIRERPPRLPRPRPRPFYAPRP
  shrunken log2 fold change: -0.526

## RRIRHRPPRLPRPRPRPTNTPRP
  shrunken log2 fold change: -0.384

## RRIRVRPPRLPRPRPRPKFFPRP
  shrunken log2 fold change: -0.0182

## RRIRVRPPRLPRPRPRPWPVPRP
  shrunken log2 fold change: 0.197

## RRIRQRPPRLPRPRPRPQLKPRP
  shrunken log2 fold change: -0.0311

## RRIRARPPRLPRPRPRPLFLPRP
  shrunken log2 fold change: 0.0297

## RRIRFRPPRLPRPRPRPRVNPRP
  shrunken log2 fold change: -0.116

## RRIRKRPPRLPRPRPRPMMYPRP
  shrunken log2 fold change: -0.00208

## RRIRQRPPRLPRPRPRPGHEPRP
  shrunken log2 fold change: 0.104

## RRIRARPPRLPRPRPRPHYMPRP
  shrunken log2 fold change: -0.381

## RRIRSRPPRLPRPRPRPRGFPRP
  shrunken log2 fold change: 0.82

## RRIRNRPPRLPRPRPRPREFPRP
  shrunken log2 fold change: 0.306

## RRIRCRPPRLPRPRPRPWARPRP
  shrunken log2 fold change: -0.188

## RRIRCRPPRLPRPRPRPYWAPRP
  shrunken log2 fold change: -1.21

## RRIRARPPRLPRPRPRPFEIPRP
  shrunken log2 fold change: 0.083

## RRIRCRPPRLPRPRPRPLYHPRP
  shrunken log2 fold change: -0.695

## RRIRKRPPRLPRPRPRPLWCPRP
  shrunken log2 fold change: 0.0281

## RRIRHRPPRLPRPRPRPFKIPRP
  shrunken log2 fold change: -0.192

## RRIRGRPPRLPRPRPRPCSLPRP
  shrunken log2 fold change: 0.237

## RRIRQRPPRLPRPRPRPERQPRP
  shrunken log2 fold change: -0.0407

## RRIRWRPPRLPRPRPRPRKTPRP
  shrunken log2 fold change: -0.0389

## RRIRERPPRLPRPRPRPHSKPRP
  shrunken log2 fold change: -0.313

## RRIRSRPPRLPRPRPRPIFLPRP
  shrunken log2 fold change: -0.335

## RRIRGRPPRLPRPRPRPNMYPRP
  shrunken log2 fold change: -0.185

## RRIRLRPPRLPRPRPRPCPAPRP
  shrunken log2 fold change: -0.00808

## RRIRDRPPRLPRPRPRPIMHPRP
  shrunken log2 fold change: -0.0198

## RRIRQRPPRLPRPRPRPEVNPRP
  shrunken log2 fold change: -0.142

## RRIRGRPPRLPRPRPRPHCPPRP
  shrunken log2 fold change: 0.084

## RRIRERPPRLPRPRPRPLAWPRP
  shrunken log2 fold change: 0.039

## RRIRDRPPRLPRPRPRPTSIPRP
  shrunken log2 fold change: 0.099

## RRIRYRPPRLPRPRPRPVADPRP
  shrunken log2 fold change: -0.127

## RRIRERPPRLPRPRPRPPRMPRP
  shrunken log2 fold change: 0.027

## RRIRKRPPRLPRPRPRPLGYPRP
  shrunken log2 fold change: 0.202

## RRIRGRPPRLPRPRPRPGVHPRP
  shrunken log2 fold change: 0.597

## RRIRKRPPRLPRPRPRPVVYPRP
  shrunken log2 fold change: -0.266

## RRIRSRPPRLPRPRPRPLLPPRP
  shrunken log2 fold change: 0.405

## RRIRGRPPRLPRPRPRPTRDPRP
  shrunken log2 fold change: 0.965

## RRIRCRPPRLPRPRPRPQWWPRP
  shrunken log2 fold change: 0.433

## RRIRHRPPRLPRPRPRPMSHPRP
  shrunken log2 fold change: -0.0479

## RRIRHRPPRLPRPRPRPGYVPRP
  shrunken log2 fold change: -0.211

## RRIRGRPPRLPRPRPRPEMVPRP
  shrunken log2 fold change: 2.43

## RRIRTRPPRLPRPRPRPITGPRP
  shrunken log2 fold change: 0.00283

## RRIRYRPPRLPRPRPRPDTTPRP
  shrunken log2 fold change: 0.0425

## RRIRFRPPRLPRPRPRPYMMPRP
  shrunken log2 fold change: -0.34

## RRIRVRPPRLPRPRPRPHWKPRP
  shrunken log2 fold change: -0.14

## RRIRERPPRLPRPRPRPWAIPRP
  shrunken log2 fold change: -0.0826

## RRIRQRPPRLPRPRPRPQYRPRP
  shrunken log2 fold change: 0.0114

## RRIRDRPPRLPRPRPRPPNYPRP
  shrunken log2 fold change: -0.147

## RRIRIRPPRLPRPRPRPASVPRP
  shrunken log2 fold change: -0.102

## RRIRCRPPRLPRPRPRPMGCPRP
  shrunken log2 fold change: -0.0697

## RRIRDRPPRLPRPRPRPLIPPRP
  shrunken log2 fold change: -0.516

## RRIRPRPPRLPRPRPRPYDRPRP
  shrunken log2 fold change: -0.319

## RRIRHRPPRLPRPRPRPNLGPRP
  shrunken log2 fold change: -0.00355

## RRIRCRPPRLPRPRPRPPQSPRP
  shrunken log2 fold change: 0.839

## RRIRRRPPRLPRPRPRPEQRPRP
  shrunken log2 fold change: 0.272

## RRIRLRPPRLPRPRPRPVIRPRP
  shrunken log2 fold change: -0.502

## RRIRNRPPRLPRPRPRPDSDPRP
  shrunken log2 fold change: -0.00992

## RRIRKRPPRLPRPRPRPYVNPRP
  shrunken log2 fold change: -0.526

## RRIRLRPPRLPRPRPRPLTWPRP
  shrunken log2 fold change: 0.0168

## RRIRIRPPRLPRPRPRPRCNPRP
  shrunken log2 fold change: -0.393

## RRIRLRPPRLPRPRPRPANWPRP
  shrunken log2 fold change: 0.0804

## RRIRDRPPRLPRPRPRPFCGPRP
  shrunken log2 fold change: 0.258

## RRIRIRPPRLPRPRPRPHTCPRP
  shrunken log2 fold change: -0.0906

## RRIRGRPPRLPRPRPRPRIQPRP
  shrunken log2 fold change: 0.337

## RRIRLRPPRLPRPRPRPRDIPRP
  shrunken log2 fold change: -0.54

## RRIRHRPPRLPRPRPRPCHKPRP
  shrunken log2 fold change: -0.0933

## RRIRCRPPRLPRPRPRPWPYPRP
  shrunken log2 fold change: -0.115

## RRIRVRPPRLPRPRPRPICVPRP
  shrunken log2 fold change: -0.0314

## RRIRPRPPRLPRPRPRPDFRPRP
  shrunken log2 fold change: -0.184

## RRIRLRPPRLPRPRPRPQMFPRP
  shrunken log2 fold change: -0.427

## RRIRARPPRLPRPRPRPRWHPRP
  shrunken log2 fold change: 0.323

## RRIRRRPPRLPRPRPRPGENPRP
  shrunken log2 fold change: 0.066

## RRIRLRPPRLPRPRPRPIPVPRP
  shrunken log2 fold change: -0.0985

## RRIRTRPPRLPRPRPRPCYRPRP
  shrunken log2 fold change: -0.0575

## RRIRHRPPRLPRPRPRPRRCPRP
  shrunken log2 fold change: 0.166

## RRIRDRPPRLPRPRPRPGNMPRP
  shrunken log2 fold change: -0.164

## RRIRTRPPRLPRPRPRPEEKPRP
  shrunken log2 fold change: 0.167

## RRIRDRPPRLPRPRPRPVLWPRP
  shrunken log2 fold change: 0.37

## RRIRGRPPRLPRPRPRPSNKPRP
  shrunken log2 fold change: -0.0675

## RRIRLRPPRLPRPRPRPVGHPRP
  shrunken log2 fold change: 0.306

## RRIRTRPPRLPRPRPRPSLWPRP
  shrunken log2 fold change: 0.277

## RRIRARPPRLPRPRPRPRMLPRP
  shrunken log2 fold change: 0.395

## RRIRERPPRLPRPRPRPVTSPRP
  shrunken log2 fold change: -0.23

## RRIRERPPRLPRPRPRPMVSPRP
  shrunken log2 fold change: -0.0769

## RRIRDRPPRLPRPRPRPRDEPRP
  shrunken log2 fold change: 0.12

## RRIRTRPPRLPRPRPRPSRQPRP
  shrunken log2 fold change: 0.15

## RRIRERPPRLPRPRPRPIWMPRP
  shrunken log2 fold change: 0.0239

## RRIRQRPPRLPRPRPRPTKLPRP
  shrunken log2 fold change: -0.0369

## RRIRVRPPRLPRPRPRPASFPRP
  shrunken log2 fold change: 0.115

## RRIRMRPPRLPRPRPRPQKGPRP
  shrunken log2 fold change: -0.0123

## RRIRFRPPRLPRPRPRPGVEPRP
  shrunken log2 fold change: 0.112

## RRIRWRPPRLPRPRPRPQKYPRP
  shrunken log2 fold change: -0.348
